# According to patent US20220033460A1 (REPERTOIRE IMMUNE MEDICINES, published 2022):
# B1: TCR_11 (TCR, V domains shown)
# V domain 1: EDQVTQSPEALRLQEGESSSLNCSYTVSGLRGLFWYRQDPGKGPEFLFTLYSAGEEKEKERLKATLTKKESFLHITAPKPEDSATYLCAVQAPMSARGSQGNLIFGKGTKLSVKP
# V domain 2: GAGVSQSPSNKVTEKGKDVELRCDPISGHTALYWYRQSLGQGLEFLIYFQGNSAPDKSGLPSDRFSAERTGGSVSTLTIQRTQQEDSAVYLCASSSKGGGQQTQYFGPGTRLLVLE
# Target: […] / HLA-B*07:02 tetramer (human; SARS-CoV-2)
# Assay: DNA-barcoded tetramer staining, single-cell sequencing
binder,measurement,value
B1,No. of Cells,10 cells
